Tests used:
pyrophosphatase (PPase) = conditions: cited from earlier work
[1] = system: UltraScript 2.0 Reverse Transcriptase; conditions: 150 ng conjugate, RTase 324 nM, 30 min at 25, 43, 55 and then 35° C.; loss of product peak
Method: The reaction was performed using the UltraScript 2.0 Reverse Transcriptase from PCR Bio (UK), according to the instructions of the manufacturer. General conditions were, for a 20 μl total reaction volume:
RNA=5 μg template plus random hexamer primers, in PCR Bio buffer mix.
Individual reaction vials were kept at the set temperature for 30 min and the reaction allowed to proceed. The temperatures used were 25° C., 43° C., 55° C. and 35° C., the latter being done after the 55° C. step. After each incubation, 1-2 μl of cDNA product was taken for qPCR amplification and quantification. Inhibition detected by observing loss of product peak.

Row | Substance | optimum temperature (pyrophosphatase (PPase)) [°C] | RTase inhibition, thermal reversibility [1]
1 | pyrophosphatase [unconjugated free enzyme] | 45 | 
2 | zidovudine-poly-N-isopropylmethacrylamide |  | inhibition was reversible

— US20220372549A1, “Thermally Responsive Conjugates” (MIP Diagnostic Limited, priority 2019, published 2022)
